{
  "source": "patent US20020052481A1",
  "key": {"[1]": {"molecular_target": "recombinant gp120 from the laboratory-adapted strain HIV-1LAI (HIV-1LAI) (UniProt P03377)", "assay": "modified ELISA, gp120 captured on plate"}, "[2]": {"molecular_target": "recombinant gp120 from the primary isolate HIV-1JR-FL (HIV-1JR-FL)", "assay": "modified ELISA, gp120 captured on plate"}, "[3]": {"molecular_target": "HIV-1LAI envelope glycoprotein gp120/gp41 on cells (HIV-1LAI) (UniProt P03377)"}, "[4]": {"molecular_target": "HIV-1JR-FL envelope glycoprotein gp120/gp41 on cells (HIV-1JR-FL)"}, "[5]": {"molecular_target": "HIV-1JR-FL envelope glycoprotein gp120/gp41 on cells (HIV-1JR-FL)", "remark": "listed apart in the source"}},
  "note": "Where two headings read alike, the source gives them in different places.",
  "data": [
    {"substance": "CD4-IgG2 chimeric heterotetramer (Fc fusion)", "values": [
      {"measurement": "EC50", "setting": "[1]", "result": 1.47, "unit": "nM"},
      {"measurement": "EC50", "setting": "[2]", "result": 1.27, "unit": "nM"}
    ]},
    {"substance": "^125I-CD4-IgG2 (Fc fusion)", "values": [
      {"measurement": "EC50", "setting": "[1]", "result": 1.05, "unit": "nM"},
      {"measurement": "EC50", "setting": "[2]", "result": 2.36, "unit": "nM"},
      {"measurement": "EC50", "setting": "[3]", "result": 19, "unit": "nM"},
      {"measurement": "EC50", "setting": "[4]", "result": 12.8, "unit": "nM"},
      {"measurement": "EC50", "setting": "[5]", "result": "10 to 40", "unit": "nM"}
    ]}
  ]
}
